# Data published in patent US20190111164A1 (published 2019).
# Target: dBSM (bovine)
# Experiment: ELISA
row,EC50,Binder
1,8.72 nM,"2F3#633 (antibody, V domains shown) VH: EVQLLESGGGLVQPGGSLRLSCAASGFTFDSYAMSWVRQAPGKGLEWVSAISGSGASTYYADSVKGRFSISRDNSKNTLYLQMNSLRAEDTAVYYCAIRREYSGYTPFDYWGQGTLVTVSS VL: DIVMTQTPSSLSASVGDRVTITCRASQGISSWLAWYQQKPEKAPRSLIYAASSLQSGVPSRFSGSGSGTDFTLTISSLQPEDFATYYCQQYISYPYTFGQGTKLEIK"
2,13.6 nM,"2F3#1733 (antibody, V domains shown) VH: QITLRESGGGLVQPGGSLRLSCAASGFTFDSYAMSWVRQAPGKGLEWVSAISGSGHSTYYADSVKGRFSISRDNSKNTLYLQMNNLRAEDTAVYYCAIRREYSGYTPFDYWGQGTLVTVSS VL: DIVMTQTPSSLSASVGDRVTITCRASQGISSWLAWYQQKPEKAPRSLIYAASSLQSGVPSRFSGSGSGTDFTLTISSLQPEDFATYYCQQYISYPYTFGQGTKLEIK"
3,24.4 nM,"2F3#6 (antibody, V domains shown) VH: QVQLLESGGGLVQPGGSLRLSCAASGFTFDSYAMSWVRQAPGKGLEWVSAISGSGASTYYADSVKGRFSISRDNSKNTLYLQMNSLRAEDTAVYYCAIRREYSGYAPFDYWGQGTLVIVSS VL: DIVMTQTPSSLSASVGDRVTITCRASQGISSWLAWYQQKPEKAPRSLIYAASSLQSGVPSRFSGSGSGTDFTLTISSLQPEDFATYYCQQYISYPYTFGQGTKLEIK"
